Assay results taken from US9289492B2, “Collecting ovarian cancer stem cells from ovarian cancer cells” (The General Hospital Corporation, priority 2007, dated 2016).
Like-named read-outs stand apart in the source and are kept apart here.

How the values were obtained:
MOVCAR 7 cells = assay: Hoechst 33342 side population flow cytometry with verapamil, MOVCAR 7; assay type: cell-based, mouse; conditions: MOVCAR 7, verapamil 25-50 μg/ml, Hoechst 33342 flow cytometry
Description: (§1) Flow cytometry was performed in the Department of Pathology and Center for Regenerative Medicine Flow Cytometry Laboratory according to their published protocols (36). Mouse and human ovarian cancer SP sorting and immunophenotyping were performed as described in Supporting Methods, which is published as supporting information on the PNAS web site.
(§2) SP cells were identified and electronically gated on a Digital Vantage cell sorter (Becton Dickinson) after excitation of the Hoechst dye with 150 mW of 350 nm UV light. SP fluorescence emissions were directed toward a 610-nm dichroic filter and captured simultaneously through both a blue (450-nm) band-pass and a red (675-nm) long-pass filter on a linearly amplified fluorescence scale.

4306 cells = assay: Hoechst 33342 side population flow cytometry with verapamil, 4306; assay type: cell-based, mouse; conditions: 4306, verapamil 25-50 μg/ml, Hoechst 33342 flow cytometry
Description: as §1, §2

MOVCAR 7 SP cells = assay: MTT proliferation assay, MOVCAR 7 SP cells; assay type: cell-based, mouse; conditions: for inhibition at 0.004 µM: Mus musculus, 4 nM drug, compared with vehicle-treated controls, read-out: inhibition (MTT growth inhibition)
Description: (§3) MTT assay was used to assess proliferation inhibition. MOVCAR 7 and 4306 cells were harvested, sorted for SPs and NSPs, and plated in the inner wells of 96-well plates at 1,000 cells per well in 200 μl of medium per well. […] At day 5 or 7 of incubation, cell viability was quantified by measuring mitochondrial activity (38) on an ELISA plate reader at an absorbance of 550 nm to generate an OD proportional to the relative abundance of live cells in a given well.
(§4) Statistical Analysis. In MTT assays, MIS-, doxorubicin-, and paclitaxel-treated and untreated samples were analyzed by using the univariant two-tailed Student t test, with P ≦0.05conferring statistical significance. All experiments were performed in triplicate. In ovarian somatic stem cell studies, all p-values were calculated with the use of two-tailed student's t-test. Differences with p-values less than 0.05 were considered significant.

MOVCAR 7 NSP cells = assay: MTT proliferation assay, MOVCAR 7 NSP cells; assay type: cell-based, mouse; conditions: for inhibition at 0.004 µM: Mus musculus, read-out: inhibition (MTT growth inhibition)
Description: as §3, §4

BCRP1 transporter = molecular target: T1, BCRP1 transporter (Homo sapiens, UniProt Q9UNQ0); conditions: reference 23; cited from earlier work
T1 sequence (Q9UNQ0 1-655): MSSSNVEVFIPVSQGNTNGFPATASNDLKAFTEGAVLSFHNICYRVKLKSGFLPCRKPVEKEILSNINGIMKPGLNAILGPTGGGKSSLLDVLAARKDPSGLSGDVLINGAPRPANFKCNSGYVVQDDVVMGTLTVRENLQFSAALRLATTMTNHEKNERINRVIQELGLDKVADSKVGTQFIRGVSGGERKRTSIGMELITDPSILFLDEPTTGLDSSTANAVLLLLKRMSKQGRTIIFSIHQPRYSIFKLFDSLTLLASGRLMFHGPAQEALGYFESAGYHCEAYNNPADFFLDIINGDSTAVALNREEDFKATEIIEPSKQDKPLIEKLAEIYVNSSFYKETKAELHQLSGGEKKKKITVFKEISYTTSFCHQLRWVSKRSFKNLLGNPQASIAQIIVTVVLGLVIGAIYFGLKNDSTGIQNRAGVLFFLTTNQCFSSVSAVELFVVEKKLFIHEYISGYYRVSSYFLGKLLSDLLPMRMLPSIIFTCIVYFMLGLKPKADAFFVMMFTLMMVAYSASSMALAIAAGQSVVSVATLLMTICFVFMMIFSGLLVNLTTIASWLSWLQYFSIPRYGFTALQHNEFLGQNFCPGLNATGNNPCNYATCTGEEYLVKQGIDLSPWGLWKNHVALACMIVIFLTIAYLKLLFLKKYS

4306 SP cells = assay: MTT proliferation assay, 4306 SP cells; assay type: cell-based, mouse
Description: as §3, §4

[1] = Organ culture bioassay for MIS; conditions: purified recombinant human MIS
Description: The human MIS gene was transfected into CHO cells, amplified, purified, and maintained in a dedicated facility in the Pediatric Surgical Research Laboratories for use in this study as described in ref.39. MIS levels were measured by using human MIS-specific ELISA (40). MIS was purified by a combination of lectin affinity chromatography and FPLC anion-exchange chromatography (39).

MOVCAR 7 [2] = conditions: in vitro, reference 25; cited from earlier work
MOVCAR 7 [3] = conditions: in vivo, reference 25; cited from earlier work
MOVCAR 8 cells = conditions: references 25, 35; cited from earlier work
OVCAR 8 cells = conditions: references 25, 35; cited from earlier work
[4] = system: human anchorage-independent Mullerian tumors; conditions: soft agarose, reference 34; cited from earlier work
[5] = 4 nM drug, versus vehicle-treated controls

## COc1ccc(CCN(C)CCCC(C#N)(c2ccc(OC)c(OC)c2)C(C)C)cc1OC (stereo not drawn) [Verapamil, verapamil]
MOVCAR 7 cells
  elimination of the SP: effectively eliminated the SP
4306 cells
  elimination of the SP: effectively eliminated the SP

## CC(=O)O[C@H]1C(=O)[C@@]2(C)[C@H]([C@H](OC(=O)c3ccccc3)[C@]3(O)C[C@H](OC(=O)[C@H](O)[C@@H](NC(=O)c4ccccc4)c4ccccc4)C(C)=C1C3(C)C)[C@]1(OC(C)=O)CO[C@@H]1C[C@@H]2O [paclitaxel]
MOVCAR 7 SP cells; MOVCAR 7 SP cells
  inhibition at 0.004 µM: 85%
MOVCAR 7 NSP cells; [5]
  inhibition (MTT growth inhibition): 88%
  inhibition at 0.004 µM: 83%

## COc1cccc2c1C(=O)c1c(O)c3c(c(O)c1C2=O)C[C@@](O)(C(=O)CO)C[C@@H]3O[C@H]1C[C@H](N)[C@H](O)[C@H](C)O1 [doxorubicin]
MOVCAR 7 SP cells; MOVCAR 7 SP cells
  inhibition at 0.004 µM: 30%
MOVCAR 7 NSP cells; [5]
  inhibition at 0.004 µM: 81%
BCRP1 transporter
  substrate of the BCRP1 transporter: is a substrate

B1: MIS: Recombinant human Mullerian Inhibiting Substance protein (SEQ ID NO: 16), produced in CHO cells and purified (protein, listed as Homo sapiens)
chain: MRDLPLTSLALVLSALGALLGTEALRAEEPAVGTSGLIFREDLDWPPGSPQEPLCLVALGGDSNGSSSPLRVVGALSAYEQAFLGAVQRARWGPRDLATFGVCNTGDRQAALPSLRRLGAWLRDPGGQRLVVLHLEEVTWEPTPSLRFQEPPPGGAGPPELALLVLYPGPGPEVTVTRAGLPGAQSLCPSRDTRYLVLAVDRPAGAWRGSGLALTLQPRGEDSRLSTARLQALLFGDDHRCFTRMTPALLLLPRSEPAPLPAHGQLDTVPFPPPRPSAELEESPPSADPFLETLTRLVRALRVPPARASAPRLALDPDALAGFPQGLVNLSDPAALERLLDGEEPLLLLLRPTAATTGDPAPLHDPTSAPWATALARRVAAELQAAAAELRSLPGLPPATAPLLARLLALCPGGPGGLGDPLRALLLLKALQGLRVEWRGRDPRGPGRAQRSAGATAADGPCALRELSVDLRAERSVLIPETYQANNCQGVCGWPQSDRNPRYGNHVVLLLKMQARGAALARPPCCVPTAYAGKLLISLSEERISAHHVPNMVATECGCR
MOVCAR 7 SP cells; MOVCAR 7 SP cells after sort 2, 10 μg/ml MIS
  inhibition by MIS (MTT): 93%
MOVCAR 7 SP cells; MOVCAR 7 SP cells after sort 3, 10 μg/ml MIS
  inhibition by MIS (MTT): 94%
MOVCAR 7 SP cells; MOVCAR 7 SP cells, first sort, 10 μg/ml MIS, versus vehicle
  inhibition by MIS (MTT): 86%
MOVCAR 7 NSP cells; first sort, 10 μg/ml MIS, versus vehicle
  inhibition by MIS (MTT): 93%
4306 SP cells; 4306 SP cells after sort 2, 10 μg/ml MIS
  inhibition by MIS (MTT): 60%
4306 SP cells; 4306 SP cells after sort 3, 10 μg/ml MIS, not significant
  inhibition by MIS (MTT): 17%
4306 SP cells; 4306 SP cells, first sort, 10 μg/ml MIS, vs. vehicle control
  inhibition by MIS (MTT): 37%
[1]
  regression in organ culture bioassay: causes regression
MOVCAR 7 [2]
  inhibition of MOVCAR 7: inhibit
MOVCAR 7 [3]
  inhibition of MOVCAR 7: inhibit
MOVCAR 8 cells
  inhibition of MOVCAR 8 cells: inhibits
OVCAR 8 cells
  inhibition of OVCAR 8 cells: inhibits
[4]
  inhibition of anchorage-independent tumors: inhibits
